From US20110166062A1 (INDIANA UNIVERSITY RESEARCH AND TECHNOLOGY, published 2011)
Bridges are numbered along the chain shown (N, C = ends). Where no end group is shown, it is not given here. [ ]: non-standard residue; d: D form. Aib = CC(C)(N)C(=O)O

Columns and labels:
Experiment in all cases: cell-based or functional assay
glucagon receptor = glucagon receptor (UniProt P47871 26-477, limits assumed)
GIP receptor = molecular target: T1, GIP receptor (UniProt P48546 22-466)
T1 sequence (looked up): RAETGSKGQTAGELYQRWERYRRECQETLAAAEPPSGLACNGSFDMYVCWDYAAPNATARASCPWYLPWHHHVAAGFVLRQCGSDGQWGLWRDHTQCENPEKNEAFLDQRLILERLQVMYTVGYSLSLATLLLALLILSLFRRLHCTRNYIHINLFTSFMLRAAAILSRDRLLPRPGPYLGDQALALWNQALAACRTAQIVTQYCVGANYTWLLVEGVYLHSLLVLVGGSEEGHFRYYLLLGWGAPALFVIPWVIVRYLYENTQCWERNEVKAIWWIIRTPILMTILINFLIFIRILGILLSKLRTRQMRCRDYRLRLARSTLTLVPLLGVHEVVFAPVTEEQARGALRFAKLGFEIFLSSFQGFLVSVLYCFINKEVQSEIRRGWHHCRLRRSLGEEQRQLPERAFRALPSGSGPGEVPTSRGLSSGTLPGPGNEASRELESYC

GLP-1 receptor = GLP-1 receptor (UniProt P43220 24-463, limits assumed)

Chain of glucagon receptor (P47871 26-477 limits assumed): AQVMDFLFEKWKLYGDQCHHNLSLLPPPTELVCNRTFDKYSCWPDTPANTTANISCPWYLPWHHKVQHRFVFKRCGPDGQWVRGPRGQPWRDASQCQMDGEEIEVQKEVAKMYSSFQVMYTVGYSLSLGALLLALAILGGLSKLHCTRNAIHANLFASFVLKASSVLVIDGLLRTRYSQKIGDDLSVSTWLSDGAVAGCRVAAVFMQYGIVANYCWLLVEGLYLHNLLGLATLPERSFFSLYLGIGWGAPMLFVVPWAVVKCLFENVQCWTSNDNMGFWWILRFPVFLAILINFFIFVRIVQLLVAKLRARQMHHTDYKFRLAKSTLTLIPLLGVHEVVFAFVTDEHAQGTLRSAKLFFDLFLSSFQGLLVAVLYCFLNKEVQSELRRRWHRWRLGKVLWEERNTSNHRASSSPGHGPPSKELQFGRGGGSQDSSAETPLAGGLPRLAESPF

B1: mt-163 (peptide)
peptide: YSQGTFTSDYSIYLDEQAAKEFVNWLLAG-NH2
modifications: lactam 16-20; N-terminus assumed
SMILES: CC[C@H](C)[C@H](NC(=O)[C@H](CO)NC(=O)[C@H](Cc1ccc(O)cc1)NC(=O)[C@H](CC(=O)O)NC(=O)[C@H](CO)NC(=O)[C@@H](NC(=O)[C@H](Cc1ccccc1)NC(=O)[C@@H](NC(=O)CNC(=O)[C@H](CCC(N)=O)NC(=O)[C@H](CO)NC(=O)[C@@H](N)Cc1ccc(O)cc1)[C@@H](C)O)[C@@H](C)O)C(=O)N[C@@H](Cc1ccc(O)cc1)C(=O)N[C@@H](CC(C)C)C(=O)N[C@@H](CC(=O)O)C(=O)N[C@H]1CCC(=O)NCCCC[C@@H](C(=O)N[C@@H](CCC(=O)O)C(=O)N[C@@H](Cc2ccccc2)C(=O)N[C@H](C(=O)N[C@@H](CC(N)=O)C(=O)N[C@@H](Cc2c[nH]c3ccccc23)C(=O)N[C@@H](CC(C)C)C(=O)N[C@@H](CC(C)C)C(=O)N[C@@H](C)C(=O)NCC(N)=O)C(C)C)NC(=O)[C@H](C)NC(=O)[C@H](C)NC(=O)[C@H](CCC(N)=O)NC1=O
EC50 (glucagon receptor): 0.027 nM | relative activity (glucagon receptor): 252% | EC50 (GIP receptor): 0.74 nM | relative activity (GIP receptor): 4.73% | EC50 (GLP-1 receptor): 0.04 nM | relative activity (GLP-1 receptor): 30%

B2: mt-158 (peptide)
peptide: Y[Aib]QGTFTSDYSIYLDEQAAKEFVCWLLAGGPSSGAPPPS-NH2
modifications: lactam 16-20; N-terminus assumed
SMILES: CC[C@H](C)[C@H](NC(=O)[C@H](CO)NC(=O)[C@H](Cc1ccc(O)cc1)NC(=O)[C@H](CC(=O)O)NC(=O)[C@H](CO)NC(=O)[C@@H](NC(=O)[C@H](Cc1ccccc1)NC(=O)[C@@H](NC(=O)CNC(=O)[C@H](CCC(N)=O)NC(=O)C(C)(C)NC(=O)[C@@H](N)Cc1ccc(O)cc1)[C@@H](C)O)[C@@H](C)O)C(=O)N[C@@H](Cc1ccc(O)cc1)C(=O)N[C@@H](CC(C)C)C(=O)N[C@@H](CC(=O)O)C(=O)N[C@H]1CCC(=O)NCCCC[C@@H](C(=O)N[C@@H](CCC(=O)O)C(=O)N[C@@H](Cc2ccccc2)C(=O)N[C@H](C(=O)N[C@@H](CS)C(=O)N[C@@H](Cc2c[nH]c3ccccc23)C(=O)N[C@@H](CC(C)C)C(=O)N[C@@H](CC(C)C)C(=O)N[C@@H](C)C(=O)NCC(=O)NCC(=O)N2CCC[C@H]2C(=O)N[C@@H](CO)C(=O)N[C@@H](CO)C(=O)NCC(=O)N[C@@H](C)C(=O)N2CCC[C@H]2C(=O)N2CCC[C@H]2C(=O)N2CCC[C@H]2C(=O)N[C@@H](CO)C(N)=O)C(C)C)NC(=O)[C@H](C)NC(=O)[C@H](C)NC(=O)[C@H](CCC(N)=O)NC1=O
EC50 (glucagon receptor): 1.05 nM | relative activity (glucagon receptor): 14.9% | EC50 (GIP receptor): 0.174 nM | relative activity (GIP receptor): 17.8% | EC50 (GLP-1 receptor): 0.034 nM | relative activity (GLP-1 receptor): 103%

B3: mt-157 (peptide)
peptide: YSQGTFTSDYSIYLDEQAAKEFVEWLLKGGPSSGAPPPS-NH2
modifications: lactam 24-28; N-terminus assumed
SMILES: CC[C@H](C)[C@H](NC(=O)[C@H](CO)NC(=O)[C@H](Cc1ccc(O)cc1)NC(=O)[C@H](CC(=O)O)NC(=O)[C@H](CO)NC(=O)[C@@H](NC(=O)[C@H](Cc1ccccc1)NC(=O)[C@@H](NC(=O)CNC(=O)[C@H](CCC(N)=O)NC(=O)[C@H](CO)NC(=O)[C@@H](N)Cc1ccc(O)cc1)[C@@H](C)O)[C@@H](C)O)C(=O)N[C@@H](Cc1ccc(O)cc1)C(=O)N[C@@H](CC(C)C)C(=O)N[C@@H](CC(=O)O)C(=O)N[C@@H](CCC(=O)O)C(=O)N[C@@H](CCC(N)=O)C(=O)N[C@@H](C)C(=O)N[C@@H](C)C(=O)N[C@@H](CCCCN)C(=O)N[C@@H](CCC(=O)O)C(=O)N[C@@H](Cc1ccccc1)C(=O)N[C@H](C(=O)N[C@H]1CCC(=O)NCCCC[C@@H](C(=O)NCC(=O)NCC(=O)N2CCC[C@H]2C(=O)N[C@@H](CO)C(=O)N[C@@H](CO)C(=O)NCC(=O)N[C@@H](C)C(=O)N2CCC[C@H]2C(=O)N2CCC[C@H]2C(=O)N2CCC[C@H]2C(=O)N[C@@H](CO)C(N)=O)NC(=O)[C@H](CC(C)C)NC(=O)[C@H](CC(C)C)NC(=O)[C@H](Cc2c[nH]c3ccccc23)NC1=O)C(C)C
EC50 (glucagon receptor): 2.62 nM | relative activity (glucagon receptor): 6.92% | EC50 (GIP receptor): 1.01 nM | relative activity (GIP receptor): 4% | EC50 (GLP-1 receptor): 0.081 nM | relative activity (GLP-1 receptor): 37%

B4: mt-162 (peptide)
peptide: Y[Aib]QGTFTSDYSYYLDEQAVKEFVNWLIAGGPSSGAPPPS-NH2
modifications: lactam 16-20; N-terminus assumed
SMILES: CC[C@H](C)[C@H](NC(=O)[C@H](CC(C)C)NC(=O)[C@H](Cc1c[nH]c2ccccc12)NC(=O)[C@H](CC(N)=O)NC(=O)[C@@H](NC(=O)[C@H](Cc1ccccc1)NC(=O)[C@H](CCC(=O)O)NC(=O)[C@@H]1CCCCNC(=O)CC[C@H](NC(=O)[C@H](CC(=O)O)NC(=O)[C@H](CC(C)C)NC(=O)[C@H](Cc2ccc(O)cc2)NC(=O)[C@H](Cc2ccc(O)cc2)NC(=O)[C@H](CO)NC(=O)[C@H](Cc2ccc(O)cc2)NC(=O)[C@H](CC(=O)O)NC(=O)[C@H](CO)NC(=O)[C@@H](NC(=O)[C@H](Cc2ccccc2)NC(=O)[C@@H](NC(=O)CNC(=O)[C@H](CCC(N)=O)NC(=O)C(C)(C)NC(=O)[C@@H](N)Cc2ccc(O)cc2)[C@@H](C)O)[C@@H](C)O)C(=O)N[C@@H](CCC(N)=O)C(=O)N[C@@H](C)C(=O)N[C@@H](C(C)C)C(=O)N1)C(C)C)C(=O)N[C@@H](C)C(=O)NCC(=O)NCC(=O)N1CCC[C@H]1C(=O)N[C@@H](CO)C(=O)N[C@@H](CO)C(=O)NCC(=O)N[C@@H](C)C(=O)N1CCC[C@H]1C(=O)N1CCC[C@H]1C(=O)N1CCC[C@H]1C(=O)N[C@@H](CO)C(N)=O
EC50 (glucagon receptor): 7 nM | relative activity (glucagon receptor): 0.97% | EC50 (GIP receptor): 0.136 nM | relative activity (GIP receptor): 25.7% | EC50 (GLP-1 receptor): 0.011 nM | relative activity (GLP-1 receptor): 109%

B5: mt-164 (peptide)
peptide: Y[Aib]QGTFTSDYSIYLDEQAAKEFVNWLLAG-NH2
modifications: lactam 16-20; N-terminus assumed
SMILES: CC[C@H](C)[C@H](NC(=O)[C@H](CO)NC(=O)[C@H](Cc1ccc(O)cc1)NC(=O)[C@H](CC(=O)O)NC(=O)[C@H](CO)NC(=O)[C@@H](NC(=O)[C@H](Cc1ccccc1)NC(=O)[C@@H](NC(=O)CNC(=O)[C@H](CCC(N)=O)NC(=O)C(C)(C)NC(=O)[C@@H](N)Cc1ccc(O)cc1)[C@@H](C)O)[C@@H](C)O)C(=O)N[C@@H](Cc1ccc(O)cc1)C(=O)N[C@@H](CC(C)C)C(=O)N[C@@H](CC(=O)O)C(=O)N[C@H]1CCC(=O)NCCCC[C@@H](C(=O)N[C@@H](CCC(=O)O)C(=O)N[C@@H](Cc2ccccc2)C(=O)N[C@H](C(=O)N[C@@H](CC(N)=O)C(=O)N[C@@H](Cc2c[nH]c3ccccc23)C(=O)N[C@@H](CC(C)C)C(=O)N[C@@H](CC(C)C)C(=O)N[C@@H](C)C(=O)NCC(N)=O)C(C)C)NC(=O)[C@H](C)NC(=O)[C@H](C)NC(=O)[C@H](CCC(N)=O)NC1=O
EC50 (glucagon receptor): 0.151 nM | relative activity (glucagon receptor): 110% | EC50 (GIP receptor): 0.164 nM | relative activity (GIP receptor): 16.5% | EC50 (GLP-1 receptor): 0.046 nM | relative activity (GLP-1 receptor): 56.5%

B6: mt-165 (peptide)
peptide: Y[Aib]QGTFTSDYSIYLDEQAAKEFVNWLLAGGPSSGAPPPSC-NH2
modifications: lactam 16-20; N-terminus assumed
SMILES: CC[C@H](C)[C@H](NC(=O)[C@H](CO)NC(=O)[C@H](Cc1ccc(O)cc1)NC(=O)[C@H](CC(=O)O)NC(=O)[C@H](CO)NC(=O)[C@@H](NC(=O)[C@H](Cc1ccccc1)NC(=O)[C@@H](NC(=O)CNC(=O)[C@H](CCC(N)=O)NC(=O)C(C)(C)NC(=O)[C@@H](N)Cc1ccc(O)cc1)[C@@H](C)O)[C@@H](C)O)C(=O)N[C@@H](Cc1ccc(O)cc1)C(=O)N[C@@H](CC(C)C)C(=O)N[C@@H](CC(=O)O)C(=O)N[C@H]1CCC(=O)NCCCC[C@@H](C(=O)N[C@@H](CCC(=O)O)C(=O)N[C@@H](Cc2ccccc2)C(=O)N[C@H](C(=O)N[C@@H](CC(N)=O)C(=O)N[C@@H](Cc2c[nH]c3ccccc23)C(=O)N[C@@H](CC(C)C)C(=O)N[C@@H](CC(C)C)C(=O)N[C@@H](C)C(=O)NCC(=O)NCC(=O)N2CCC[C@H]2C(=O)N[C@@H](CO)C(=O)N[C@@H](CO)C(=O)NCC(=O)N[C@@H](C)C(=O)N2CCC[C@H]2C(=O)N2CCC[C@H]2C(=O)N2CCC[C@H]2C(=O)N[C@@H](CO)C(=O)N[C@@H](CS)C(N)=O)C(C)C)NC(=O)[C@H](C)NC(=O)[C@H](C)NC(=O)[C@H](CCC(N)=O)NC1=O
EC50 (glucagon receptor): 0.489 nM | relative activity (glucagon receptor): 18.8% | EC50 (GIP receptor): 0.074 nM | relative activity (GIP receptor): 27% | EC50 (GLP-1 receptor): 0.023 nM | relative activity (GLP-1 receptor): 148%
